What follows are sequences tested on Escherichia coli TOP10 (assay: shrunken log2 fold change of peptide-encoding DNA abundance (4.5 h post-induction vs induction); higher = less antimicrobial activity (less host growth inhibition)). Conditions: time post-induction: 4.5 h; library: site-saturation at positions 5, 18, 19, 20.
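Also: peptides expressed intracellularly from a pBAD plasmid library in pooled LB shake-flask culture, induced with 0.3% L-arabinose, DNA abundance read by NGS, three biological replicates, DESeq2 with apeglm shrinkage.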

Sequence | shrunken log2 fold change
RRIRTRPPRLPRPRPRPEHWPRP | -0.00863
RRIRWRPPRLPRPRPRPELGPRP | -0.0384
RRIRIRPPRLPRPRPRPPRQPRP | 0.337
RRIRSRPPRLPRPRPRPQIWPRP | -0.167
RRIRKRPPRLPRPRPRPFKPPRP | 0.0806
RRIRERPPRLPRPRPRPTPAPRP | 0.239
RRIRERPPRLPRPRPRPAHMPRP | -0.291
RRIRRRPPRLPRPRPRPMLRPRP | 0.854
RRIRWRPPRLPRPRPRPVQYPRP | -0.108
RRIRSRPPRLPRPRPRPLPMPRP | 0.256
RRIRDRPPRLPRPRPRPQSLPRP | -0.0208
RRIRARPPRLPRPRPRPWTQPRP | 0.0723
RRIRTRPPRLPRPRPRPMKIPRP | 0.0884
RRIRVRPPRLPRPRPRPKHCPRP | 0.0148
RRIRFRPPRLPRPRPRPPCDPRP | 0.0212
RRIRFRPPRLPRPRPRPANGPRP | 0.0551
RRIRTRPPRLPRPRPRPWNFPRP | -0.0511
RRIRDRPPRLPRPRPRPLCCPRP | 0.0616
RRIRDRPPRLPRPRPRPDYCPRP | -0.045
RRIRQRPPRLPRPRPRPQFYPRP | -0.407
RRIRTRPPRLPRPRPRPNLYPRP | -0.255
RRIRQRPPRLPRPRPRPAPNPRP | 0.561
RRIRWRPPRLPRPRPRPHEWPRP | 0.0987
RRIRQRPPRLPRPRPRPYFEPRP | -0.524
RRIRWRPPRLPRPRPRPVGAPRP | 1.73

Sequence | shrunken log2 fold change
RRIRCRPPRLPRPRPRPQCPPRP | -0.399
RRIRARPPRLPRPRPRPFSCPRP | -0.122
RRIRCRPPRLPRPRPRPVNQPRP | -0.174
RRIRSRPPRLPRPRPRPPMWPRP | 0.54
RRIRFRPPRLPRPRPRPSEYPRP | -0.288
RRIRSRPPRLPRPRPRPSKMPRP | -0.0555
RRIRYRPPRLPRPRPRPCCWPRP | 0.0911
RRIRLRPPRLPRPRPRPWEDPRP | 0.0824
RRIRLRPPRLPRPRPRPCENPRP | 0.00489
RRIRSRPPRLPRPRPRPRMKPRP | -0.0423
RRIRGRPPRLPRPRPRPIVIPRP | -0.227
RRIRIRPPRLPRPRPRPEPEPRP | 0.421
RRIRRRPPRLPRPRPRPTKFPRP | 0.0982
RRIRTRPPRLPRPRPRPARIPRP | -0.0205
RRIRTRPPRLPRPRPRPASYPRP | -0.347
RRIRKRPPRLPRPRPRPCSPPRP | -0.102
RRIRCRPPRLPRPRPRPAIYPRP | -0.17
RRIRLRPPRLPRPRPRPTWTPRP | -0.0607
RRIRLRPPRLPRPRPRPIMAPRP | 0.0391
RRIRNRPPRLPRPRPRPIPPPRP | -0.0301
RRIRHRPPRLPRPRPRPTNDPRP | -0.311
RRIRHRPPRLPRPRPRPDIPPRP | -0.193
RRIRQRPPRLPRPRPRPCKIPRP | -0.0788
RRIRSRPPRLPRPRPRPVAAPRP | 0.432
RRIRYRPPRLPRPRPRPTTRPRP | -0.193

Sequence | shrunken log2 fold change
RRIRYRPPRLPRPRPRPDCCPRP | -0.115
RRIRKRPPRLPRPRPRPEWRPRP | 0.295
RRIRMRPPRLPRPRPRPVVSPRP | 0.095
RRIRYRPPRLPRPRPRPNILPRP | -1.9
RRIRKRPPRLPRPRPRPDKVPRP | 0.116
RRIRRRPPRLPRPRPRPFDEPRP | 0.0762
RRIRPRPPRLPRPRPRPMYVPRP | -1.06
RRIRGRPPRLPRPRPRPVKTPRP | 0.0324
RRIRGRPPRLPRPRPRPHPPPRP | 0.759
RRIRDRPPRLPRPRPRPTDTPRP | 0.146
RRIRMRPPRLPRPRPRPVYAPRP | 0.243
RRIRCRPPRLPRPRPRPKCMPRP | -0.483
RRIRSRPPRLPRPRPRPVQNPRP | 0.0832
RRIRIRPPRLPRPRPRPAAIPRP | -0.199
RRIRNRPPRLPRPRPRPAASPRP | 0.739
RRIRSRPPRLPRPRPRPYCTPRP | -0.256
RRIRWRPPRLPRPRPRPMNPPRP | -0.153
RRIRNRPPRLPRPRPRPPTPPRP | 0.56
RRIRARPPRLPRPRPRPKTTPRP | 0.0562
RRIRPRPPRLPRPRPRPWNKPRP | 0.163
RRIRCRPPRLPRPRPRPRFIPRP | -0.171
RRIRCRPPRLPRPRPRPEKKPRP | 0.0741
RRIRKRPPRLPRPRPRPSAFPRP | 0.619
RRIRERPPRLPRPRPRPCQNPRP | -0.0177
RRIRQRPPRLPRPRPRPWGIPRP | 0.0274

Sequence | shrunken log2 fold change
RRIRGRPPRLPRPRPRPSMFPRP | 0.554
RRIRLRPPRLPRPRPRPNMQPRP | -0.171
RRIRSRPPRLPRPRPRPQLLPRP | -0.182
RRIRCRPPRLPRPRPRPPAHPRP | 2.07
RRIRARPPRLPRPRPRPTHDPRP | 0.645
RRIRFRPPRLPRPRPRPWCHPRP | 0.524
RRIRIRPPRLPRPRPRPDIHPRP | -0.587
RRIRVRPPRLPRPRPRPEEAPRP | 0.26
RRIRRRPPRLPRPRPRPNWHPRP | 0.151
RRIRKRPPRLPRPRPRPQDLPRP | -0.000826
RRIRHRPPRLPRPRPRPDTMPRP | 0.031
RRIRTRPPRLPRPRPRPASNPRP | -0.00255
RRIRMRPPRLPRPRPRPMLHPRP | 0.0756
RRIRARPPRLPRPRPRPDPVPRP | 0.688
RRIRTRPPRLPRPRPRPATDPRP | 0.313
RRIRMRPPRLPRPRPRPTEQPRP | -0.0171
RRIRRRPPRLPRPRPRPRPNPRP | 0.624
RRIRIRPPRLPRPRPRPFIMPRP | -0.187
RRIRGRPPRLPRPRPRPIYLPRP | 0.0531
RRIRYRPPRLPRPRPRPGDWPRP | 0.337
RRIRCRPPRLPRPRPRPLSCPRP | -0.184
RRIRHRPPRLPRPRPRPACKPRP | -0.164
RRIRLRPPRLPRPRPRPMEPPRP | 0.101
RRIRPRPPRLPRPRPRPRYQPRP | 0.0923
RRIRGRPPRLPRPRPRPDLVPRP | 0.529

Sequence | shrunken log2 fold change
RRIRFRPPRLPRPRPRPMWPPRP | -0.0873
RRIRPRPPRLPRPRPRPFSYPRP | -0.192
RRIRDRPPRLPRPRPRPVESPRP | -0.373
RRIRVRPPRLPRPRPRPYWTPRP | -0.366
RRIRFRPPRLPRPRPRPFVYPRP | -0.413
RRIRARPPRLPRPRPRPPCWPRP | 0.967
RRIRNRPPRLPRPRPRPLGPPRP | 0.0324
RRIRHRPPRLPRPRPRPMTKPRP | 0.0576
RRIRVRPPRLPRPRPRPAWKPRP | 0.106
RRIRVRPPRLPRPRPRPDMYPRP | -0.0946
RRIRVRPPRLPRPRPRPFIKPRP | -0.865
RRIRIRPPRLPRPRPRPEIPPRP | -0.0249
RRIRYRPPRLPRPRPRPNYQPRP | -0.79
RRIRFRPPRLPRPRPRPEEEPRP | 0.78
RRIRVRPPRLPRPRPRPMRNPRP | -0.0233
RRIRGRPPRLPRPRPRPRGRPRP | 1.52
RRIRNRPPRLPRPRPRPCSSPRP | -0.0135
RRIRPRPPRLPRPRPRPMYTPRP | -0.236
RRIRMRPPRLPRPRPRPFSKPRP | -0.284
RRIRSRPPRLPRPRPRPYGAPRP | -0.318
RRIRLRPPRLPRPRPRPGKLPRP | -0.00186
RRIRGRPPRLPRPRPRPKCTPRP | 0.978
RRIRCRPPRLPRPRPRPEQEPRP | -0.0332
RRIRYRPPRLPRPRPRPKMKPRP | -0.404
RRIRNRPPRLPRPRPRPKRCPRP | 0.406

Sequence | shrunken log2 fold change
RRIRKRPPRLPRPRPRPMKYPRP | -0.152
RRIRSRPPRLPRPRPRPRQIPRP | -0.066
RRIRERPPRLPRPRPRPKPWPRP | 0.287
RRIRYRPPRLPRPRPRPHTWPRP | -0.0877
RRIRFRPPRLPRPRPRPMVDPRP | -0.304
RRIRRRPPRLPRPRPRPNYEPRP | 0.0979
RRIRTRPPRLPRPRPRPRTRPRP | 0.204
RRIRRRPPRLPRPRPRPPSYPRP | 0.26
RRIRGRPPRLPRPRPRPYEYPRP | 0.127
RRIRERPPRLPRPRPRPFASPRP | 0.00624
RRIRIRPPRLPRPRPRPYAWPRP | -0.402
RRIRHRPPRLPRPRPRPLNQPRP | -0.17
RRIRARPPRLPRPRPRPGMEPRP | 0.161
RRIRFRPPRLPRPRPRPDLKPRP | 0.166
RRIRFRPPRLPRPRPRPNPKPRP | 0.0977
RRIRERPPRLPRPRPRPGRVPRP | 0.195
RRIRPRPPRLPRPRPRPCKFPRP | -0.0234
RRIRRRPPRLPRPRPRPSKPPRP | 0.241
RRIRARPPRLPRPRPRPTNGPRP | -0.0688
RRIRDRPPRLPRPRPRPHSPPRP | -0.264
RRIRQRPPRLPRPRPRPYHWPRP | -0.0766
RRIRGRPPRLPRPRPRPVIFPRP | 0.598
RRIRFRPPRLPRPRPRPDPPPRP | 0.37
RRIRGRPPRLPRPRPRPEKPPRP | 0.316
RRIRGRPPRLPRPRPRPDCVPRP | 1.39

From the supplement of paper PMC9112550, “Optimization of the antimicrobial peptide Bac7 by deep mutational scanning” (BMC Biology, 2022)
